From US20250049953A1, “TREATMENT AND METHOD FOR INHIBITING LATE NA CURRENT” (THE TRUSTEES OF COLUMBIA UNIVERSITY IN THE CITY OF NEW YORK, priority 2022, published 2025) come the findings set out here.

In one test the target is T1, NaV1.5 E1784K (Homo sapiens, UniProt Q14524, E1784K).
T1 construct: expressed in transfected cells; host or cells: HEK293 (ATCC CRL1573)
Put plainly: Multichannel recordings of late Na current, NaV1.5 E1784K. The format is cell-based. To be noted: co-expression. From the text: The human NaV1.5 channel corresponds to clone M77235.1 (GenBank) and is subcloned into pGW 1 vector with HindIII and SaII. To facilitate construction of channelopathic mutations in the channel carboxy-terminus, we introduced silent mutations into NaV1.5 to introduce an NruI cutting site near the channel carboxy-terminus (5329-gtggccacg-5337 into 5329-gtCgcGacg-5337). Subsequently, we used overlap-extension PCR and ligated the PCR product into NaV1.5/pGW1 using NruI and XbaI restriction sites (mutations: E1784K, S1904L, IQ/AA, and Q1909R). For generating the ΔKPQ and IFM/IQM mutations, we used overlap-extension PCR and ligated in NaV1.5/pGW1 following restriction digest using KpnI and XbaI site. For generation of NaV1.5 truncations, we PCR amplified relevant segments using a forward primer upstream of the KpnI site and a reverse primer that truncated at the appropriate location (Δ1810 and Δ1885) and included an XbaI site and ligated into NaV1.5/pW1 vector. For LILA/WICW mutations, we used overlap extension and used restriction site AgeI and NheI for subsequent ligation. All segments subjected to PCR amplification were verified by sequencing. For generating human FHF2 splice-variants, we synthesized gene fragments and ligated into pcDNA3 using BamHI/EcoRI restriction sites. Human FHF1A and FHF1B were subcloned into ECFP-N3 vector, FHF2 splice variants and FHF3 were subcloned into pcDNA3. […]

In another test the target is T2, wild-type NaV1.5 (Homo sapiens, UniProt Q14524).
T2 construct: expressed in transfected cells; host or cells: HEK293 (ATCC CRL1573)
Put plainly: Phosphorylation-dependent late Na current, wild-type NaV1.5 co-expressed with PKAcat or CaMKIIT286D in HEK293 cells. It counts as cell-based. From the text:
As such, we sought to determine whether “protective” FHF variants may inhibit phosphorylation-dependent INa,L. To maximally upregulate INa,L, we co-expressed wild-type NaV1.5 with either (1) the catalytic Cα subunit of protein kinase A (PKA) or (2) a constitutively-active Ca^2+/CaM dependent kinase II (CaMKIIT286D) mutant in HEK293 cells. This maneuver likely triggers runaway phosphorylation of NaV1.5 and thereby furnishes a baseline to discern any potential FHF-dependent change. As expected, we observed an ˜5 fold increase in INa,L in the presence of the PKA Cα subunit (FIGS. 3D and 3E), and a 3-fold increase with CaMKIIT286D (FIGS. 3E and 11B). […] Encouraged by these findings, we dissected the functional role of this modulation in native cardiomyocytes (FIGS. 3F and 3G).
The human NaV1.5 channel corresponds to clone M77235.1 (GenBank) and is subcloned into pGW 1 vector with HindIII and SaII. To facilitate construction of channelopathic mutations in the channel carboxy-terminus, we introduced silent mutations into NaV1.5 to introduce an NruI cutting site near the channel carboxy-terminus (5329-gtggccacg-5337 into 5329-gtCgcGacg-5337). Subsequently, we used overlap-extension PCR and ligated the PCR product into NaV1.5/pGW1 using NruI and XbaI restriction sites (mutations: E1784K, S1904L, IQ/AA, and Q1909R). […]

Regarding “FixR: minimal 39-amino-acid FHF1A amino-terminal effector domain, MAAAIASSLIRQKRQARESNSDRVSASKRRSSPSKDGRS (SEQ ID NO: 4), expressed as peptide”, the “change in INa,L” value in the test with NaV1.5 E1784K is recorded as “inhibits INa,L”. For the same substance, the “change in phosphorylation-dependent INa,L” value in the test with wild-type NaV1.5 (INa,L upregulated by CaMKIIT286D) and with wild-type NaV1.5 (INa,L upregulated by PKA catalytic subunit (PKAcat)) was “reduces INa,L” throughout.
